Experimental findings from publication PMC7572793 are described below.

One may read the Kd as the concentration at which binding is half-saturated.

For assay [1], the target named is recombinant full-length PfCSP (rPfCSP_FL) (Plasmodium falciparum) (UniProt Q7K740). In words: ITC. On the technique in general: ITC needs no label: the signal is the heat of the interaction.
Assay [2] has as its target rPfCSP_∆ABCD (Plasmodium falciparum) (UniProt Q7K740). In words: ITC.

Take L9 (antibody): in assay [1], the KD1 (binding event 1) is 22 nM, the KD2 (binding event 2) amounted to 47 nM, the N of binding event 1 (binding sites) was 2 and the N of binding event 2 (binding sites) stood at 9. Moreover, in assay [1], the stoichiometry N (antigen binding sites per rPfCSP) is 11.2. Also, in assay [2], the Kd turned out to be 73 nM and the stoichiometry N (antigen binding sites per rPfCSP) is 12.7.
